# Patent US20020058247A1
# Target: … (SEQ. ID. No. 74)
# Assay: competition EIA, 5 ug HBcAg peptide + 5 ug SEQ 74 peptide on coated HBcAg (competitor); OD of bound SEQ 74 peptide
row,Substance,OD at 490 nm
1,"HBcAg peptide … (residues 51-70, Sequence ID 100)",0.646 OD
2,"HBcAg peptide … (residues 111-131 as printed, Sequence ID 106)",0.832 OD
3,"HBcAg peptide … (residues 121-140, Sequence ID 107)",0.701 OD
4,"HBcAg peptide … (residues 141-160, Sequence ID 109)",0.811 OD
5,"HBcAg peptide … (residues 151-170, Sequence ID 110)",0.732 OD
6,"HBcAg peptide … (residues 161-183, Sequence ID 111)",0.678 OD
